The values below come from patent publication US20160208004A1.

Numbering of substitutions follows the chain as printed.

In the assay the target is human IL-17RA (human) (UniProt Q96F46). Description: cell-based or functional assay.

B1: 3.1404 (antibody, from a related filing, V domains shown)
VH: QVQLVQSGAEVKKPGASVKVSCKASGYTFTRYGISWVRQAPGQGLEWMGWISTYSGNTNYAQKLQGRVTMTTDTSTSTAYMELRSLRSDDTAVYYCARRQLYFDYWGQGTLVTVSS
VL: EIVMTQSPATLSVSPGERATLSCRASQSVSSNLAWFQQKPGQAPRPLIYDASTRATGVPARFSGSGSGTDFTLTISSLQSEDFAVYYCQQYDNWPLTFGGGTKVEIK
As for B1, the % Inhib. of IL-5 production, TSLP treated human PBMC + IL-2 + IL-25, Expt. 1 worked out at 68%; the % Inhib. of IL-5 production, TSLP treated human PBMC + IL-2 + IL-25, Expt. 2 was 76%; the % Inhibition of IL-5 production, TSLP treated human PBMC + IL-2 + IL-25; inhibitor 0.1 micrograms/mL was 12%; the % Inhibition of IL-5 production, TSLP treated human PBMC + IL-2 + IL-25; inhibitor 1.0 micrograms/mL came out at 54%.

B2: 3.381 (antibody, from a related filing, V domains shown)
VH: B1 VH with T53A
VL: B1 VL with A19V, T56A, V58I
Regarding B2, the % Inhib. of IL-5 production, TSLP treated human PBMC + IL-2 + IL-25, Expt. 1 stood at 90%; the % Inhib. of IL-5 production, TSLP treated human PBMC + IL-2 + IL-25, Expt. 2 was 75%; the % Inhibition of IL-5 production, TSLP treated human PBMC + IL-2 + IL-25; inhibitor 10 micrograms/mL amounted to 100%.
